Reference: patent publication US20260209350A1
Substitutions are numbered along the chain they refer to.

T1: recombinant human TREM2-DAP12 fusion protein on cells (human) (UniProt Q9NZC2)
T1 sequence: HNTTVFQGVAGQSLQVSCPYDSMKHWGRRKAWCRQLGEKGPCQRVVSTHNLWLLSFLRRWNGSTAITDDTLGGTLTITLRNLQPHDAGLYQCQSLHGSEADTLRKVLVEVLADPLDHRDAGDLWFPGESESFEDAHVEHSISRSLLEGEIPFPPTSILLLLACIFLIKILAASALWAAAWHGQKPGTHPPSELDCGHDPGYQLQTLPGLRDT

B1: Ab52 (antibody, human IgG1, V domains shown)
VH: QVQLVQSGAEVKKPGASVKVSCKASGYTFTSYYIHWVRQAPGQGLEWMGIINPSGGSTSYAQKFQGRVTMTRDTSTSTVYMELSSLRSEDTAVYYCAREADDSSGYPLGLDVWGQGTMVTVSS
VL: EIVMTQSPATLSVSPGERATLSCRASQSVSSNLAWYQQKPGQAPRLLIYGASTRATGIPARFSGSGSGTEFTLTISSLQSEDFAVYYCQQVNSLPPTFGGGTKVEIK
B2: Ab45 (antibody, human IgG1, V domains shown)
VH: QVQLVQSGAEVKKPGASVKVSCKASGYTFTSYYMHWVRQAPGQGLEWMGIINPSGGSTSYAQKFQGRVTMTRDTSTSTVYMELSSLRSEDTAVYYCARGPGYTTALDYYYMDVWGKGTTVTVSS
VL: EIVMTQSPATLSVSPGERATLSCRASQSVSSNLAWYQQKPGQAPRLLIYGASTRATGIPARFSGSGSGTEFTLTISSLQSEDFAVYYCQQLDDWFTFGGGTKVEIK
B3: Ab12 (antibody, human IgG1, V domains shown)
VH: EVQLVQSGAEVKKPGESLKISCKGSGYSFTSYWIGWVRQMPGKGLEWMGIIYPGDSDTRYSPSFQGQVTISADKSISTAYLQWSSLKASDTAMYYCARLGHYSGTVSSYGMDVWGQGTTVTVSS
VL: DIQMTQSPSSLSASVGDRVTITCRASQSISSYLNWYQQKPGKAPKLLIYAASSLQSGVPSRFSGSGSGTDFTLTISSLQPEDFATYYCQQEYAVPYTFGGGTKVEIK
B4: Ab15 (antibody, human IgG1, V domains shown)
VH: QVQLQESGPGLVKPSQTLSLTCTVSGGSISSGGYYWSWIRQHPGKGLEWIGNIYYSGSTVYNPSLKSRVTISVDTSKNQFSLKLSSVTAADTAVYYCARGLYGYGVLDVWGQGTMVTVSS
VL: DIQMTQSPSSLSASVGDRVTITCQASQDISNYLNWYQQKPGKAPKLLIYDASNLETGVPSRFSGSGSGTDFTFTISSLQPEDIATYYCQQFDTYPTFGGGTKVEIK
B5: Ab51 (antibody, human IgG1, V domains shown)
VH: QVQLVQSGAEVKKPGASVKVSCKASGYTFTSYYMHWVRQAPGQGLEWMGIINPSGGSTSYAQKFQGRVTMTRDTSTSTVYMELSSLRSEDTAVYYCARGVGGQDYYYMDVWGKGTTVTVSS
VL: DIQMTQSPSSLSASVGDRVTITCRASQSISSYLNWYQQKPGKAPKLLIYAASSLQSGVPSRFSGSGSGTDFTLTISSLQPEDFATYYCQQFDDVFTFGGGTKVEIK
B6: Ab54 (antibody, human IgG1, V domains shown)
VH: B2 VH
VL: B3 VL with S30N, E91S, Y92D, A93D, V94D, Y96F
B7: Ab63 (antibody, human IgG1, V domains shown)
VH: QVQLVQSGAEVKKPGASVKVSCKASGYTFTSYGISWVRQAPGQGLEWMGWISTYNGNTNYAQKLQGRVTMTTDTSTSTAYMELRSLRSDDTAVYYCARGSGSGYDSWYDWGQGTLVTVSS
VL: B3 VL with L11V, S28G, S30D, Y32W, N34A, E91A, A93S, V94L, Y96P
B8: Ab64 (antibody, human IgG1, V domains shown)
VH: EVQLVQSGAEVKKPGESLKISCKGSGYSFTSYWIGWVRQMPGKGLEWMGIIYPGDSDTRYSPSFQGQVTISADKSISTAYLQWSSLKASDTAMYYCARLGRWSSGSTAFDIWGQGTMVTVSS
VL: B2 VL with L91D, W94G, F95Y
B9: Ab72 (antibody, human IgG1, V domains shown)
VH: QVQLQESGPGLVKPSETLSLTCTVSGGSISSYYWSWIRQPPGKGLEWIGSIYYSGSTNYNPSLKSRVTISVDTSKNQFSLKLSSVTAADTAVYYCARSGTETLFDYWGQGTLVTVSS
VL: DIQMTQSPSSLSASVGDRVTITCQASQDITNYLNWYQQKPGKAPKLLIYDASNLETGVPSRFSGSRSGTDFTFTISSLQPEDIATYYCQQDVNYPPTFGGGTKVEIK
B10: Ab73 (antibody, human IgG1, V domains shown)
VH: EVQLVQSGAEVKKPGESLKISCKGSGYSFTSYWIGWVRQMPGKGLEWMGIIYPGDSDTTYSPSFQGQVTISADKSISTAYLQWSSLKASDTAMYYCARAKMLDDGYAFDIWGQGTMVTVSS
VL: B1 VL with V91D, N92D, S93N, L94Y, P96Y
B11: Ab82 (antibody, human IgG1, V domains shown)
VH: QVQLQESGPGLVKPSQTLSLTCTVSGGSISSGGYYWSWIRQHPGKGLEWIGYIYYSGSTVYNPSLKSRVTISVDTSKNQFSLKLSSVTAADTAVYYCARVSSSWYKAWGQGTMVTVSS
VL: B3 VL with L11V, S28G, Y32W, N34A, E91A, Y92S, A93T, V94F, Y96I
B12: Ab83 (antibody, human IgG1, V domains shown)
VH: QVQLQQWGAGLLKPSETLSLTCAVYGGSFSGYYWSWIRQPPGKGLEWIGEIDHSGSTKYNPSLKSRVTISVDTSKNQFSLKLSSVTAADTAVYYCARVGVVVGRPGYSAFDIWGQGTMVTVSS
VL: B3 VL with L11V, S28G, Y32W, N34A, E91R, Y92N, A93S, V94L, Y96L
B13: Ab8 (antibody, human IgG1, V domains shown)
VH: QLQLQESGPGLVKPSETLSLTCTVSGGSISSSSYYWGWIRQPPGKGLEWIGSISYSGSTYYNPSLKSRVTISVDTSKNQFSLKLSSVTAADTAVYYCARGPYRLLLGMDVWGQGTTVTVSS
VL: B3 VL with A50G, E91I, Y92D, A93D, V94T, Y96I

Biological target: T1, recombinant human TREM2-DAP12 fusion protein on cells (human)
Assay: FACS, 293 cells

| Binder | MFI |
| --- | --- |
| B1 | 1410 MFI |
| B2 | 2060 MFI |

Biological target: T1, recombinant human TREM2-DAP12 fusion protein on cells (human)
Assay: FACS, hTrem2 cells

| Binder | MFI |
| --- | --- |
| B3 | 1930 MFI |
| B4 | 1610 MFI |
| B1 | 1410 MFI |
| B5 | 1930 MFI |
| B6 | 1930 MFI |
| B7 | 1350 MFI |
| B8 | 1460 MFI |
| B9 | 1500 MFI |
| B10 | 1310 MFI |
| B11 | 371 MFI |
| B12 | 684 MFI |
| B13 | 1620 MFI |
